Paper PMC6938348
Read-outs that look alike come from different tables or passages of the source.

Experiments:
[1] = biological target: Her2 on cells (SKOV3, JIMT-1, MCF7) (human (endogenous in SKOV3, JIMT-1, MCF7)) (UniProt P04626); test: flow cytometry on cells; saturation binding of full-size antibodies on live low-Her2 MCF7 cells, 4°C 2 h, 0 to 200 nM or 1 μM, washed, anti-human Fc AlexaFluor488-(Fab')2 detection; apparent KD
[2] = biological target: Her2 on cells (SKOV3, JIMT-1, MCF7) (human (endogenous in SKOV3, JIMT-1, MCF7)) (UniProt P04626); test: flow cytometry on cells; saturation binding of full-size antibodies on live high-Her2 SKOV3 cells, 4°C 2 h, 0 to 200 nM or 1 μM, washed, anti-human Fc AlexaFluor488-(Fab')2 detection; apparent KD
[3] = biological target: soluble Her2 ectodomain (Homo sapiens (assumed; species and source not stated)) (UniProt P04626); test: SPR; antibody captured on an anti-hFc CM-5 surface, soluble Her2 ectodomain flowed (monovalent binding); single cycle kinetics in duplicate, 25°C, PBS with […] EDTA and 0.05% Tween 20; 1:1 binding model; Biacore T200
[4] = biological target: Her2 on cells (SKOV3, JIMT-1, MCF7) (human (endogenous in SKOV3, JIMT-1, MCF7)) (UniProt P04626)
[5] = biological target: Her2 on cells (SKOV3, JIMT-1, MCF7) (human (endogenous in SKOV3, JIMT-1, MCF7)) (UniProt P04626); remark: listed apart in the source
[6] = biological target: Her2 (human (endogenous in SKOV3 and JIMT-1)) (UniProt P04626)
[7] = biological target: Her2 (human (endogenous in SKOV3 and JIMT-1)) (UniProt P04626); remark: listed apart in the source
[8] = biological target: Her2 (human (endogenous in SKOV3 and JIMT-1)) (UniProt P04626); remark: listed apart in the source
[9] = biological target: Her2 (human (endogenous in SKOV3 and JIMT-1)) (UniProt P04626); remark: listed apart in the source
[10] = biological target: Her2 (human (endogenous in SKOV3 and JIMT-1)) (UniProt P04626); remark: listed apart in the source
[11] = biological target: Her2 (human (endogenous in SKOV3 and JIMT-1)) (UniProt P04626); remark: listed apart in the source
[12] = biological target: Herceptin full-size antibody variant 7–5 (H-Y57A, L-F53N, L-Y92A); test: SPR; antibody captured on an anti-hFc CM-5 surface, soluble Her2 ectodomain flowed (monovalent binding); single cycle kinetics in duplicate, 25°C, PBS with […] EDTA and 0.05% Tween 20; 1:1 binding model; Biacore T200
[13] = biological target: Herceptin full-size antibody variant 7–6 (H-Y57A, L-N30D); test: as above
[14] = biological target: bH1 full-size antibody variant 14–13 (H-D98W, H-G99D); test: as above
[15] = biological target: bH1 full-size antibody variant 15–13 (H-G99D); test: as above
[16] = biological target: bH1 full-size antibody variant 16–13 (H-G99R); test: as above

Herceptin full-size antibody variant 2–3 (L-F53N)
Kd [1]: 0.3 nM | Kd [2]: 1.95 nM | Kd [3]: 2.1 nM

Herceptin full-size antibody variant 2–4 (L-Y92A)
Kd [1]: 0.39 nM | Kd [2]: 1.98 nM | Kd [3]: 2.32 nM

Herceptin full-size antibody variant 2–5 (L-F53N, L-Y92A)
IC50 of cytotoxicity, indirect ADC screen (DM1-conjugated secondary antibody), JIMT1 cells [4]: 8.7 nM | IC50 of cytotoxicity, indirect ADC screen (DM1-conjugated secondary antibody), MCF7 cells [4]: 8.1 nM | IC50 of cytotoxicity, indirect ADC screen (MMAE-conjugated secondary antibody), JIMT1 cells [4]: 24.4 nM | IC50 of cytotoxicity, indirect ADC screen (MMAE-conjugated secondary antibody), MCF7 cells [4]: 20.6 nM | IC50 of cytotoxicity, antibody directly conjugated to DM1, SKOV3 cells [5]: 0.161 nM | IC50 of cytotoxicity, antibody directly conjugated to PNU, MCF7 cells [5]: 4.72 nM | IC50 of cytotoxicity, antibody directly conjugated to PNU, SKOV3 cells [5]: 0.138 nM | Kd [2]: 1.98 nM | Kd [3]: 22.6 nM

Herceptin full-size antibody variant 2–6 (L-N30D)
Kd [1]: 0.51 nM | Kd [2]: 2.58 nM | Kd [3]: 6.85 nM

Herceptin full-size antibody variant 7-5 (H-Y57A, L-F53N, L-Y92A)
EC50 of internalization, direct (pHAb-conjugated antibody variant), SKOV3 cells, 37°C, 18 h, high content imaging [6]: 19.2 nM | EC50 of internalization, indirect (antibody variant + pHAb-secondary antibody), SKOV3 cells, 37°C, 18 h, high content imaging [6]: 1.99 nM

Herceptin full-size antibody variant 7–1 (H-Y57A)
Kd [1]: 0.52 nM | Kd [2]: 2.27 nM | Kd [3]: 1.6 nM

Herceptin full-size antibody variant 7–3 (H-Y57A, L-F53N)
Kd [1]: 0.67 nM | Kd [2]: 2.34 nM | Kd [3]: 16.1 nM

Herceptin full-size antibody variant 7–4 (H-Y57A, L-Y92A)
Kd [1]: 0.47 nM | Kd [2]: 2.41 nM | Kd [3]: 18 nM

Herceptin full-size antibody variant 7–5 (H-Y57A, L-F53N, L-Y92A)
IC50 of cytotoxicity, indirect ADC screen (DM1-conjugated secondary antibody), JIMT1 cells [4]: 15.7 nM | IC50 of cytotoxicity, indirect ADC screen (MMAE-conjugated secondary antibody), JIMT1 cells [4]: 11000 nM | IC50 of cytotoxicity, indirect ADC screen (MMAE-conjugated secondary antibody), MCF7 cells [4]: 32.4 nM | IC50 of cytotoxicity, indirect ADC screen (MMAE-conjugated secondary antibody), SKOV3 cells [4]: 0.204 nM | IC50 of cytotoxicity, antibody directly conjugated to DM1, SKOV3 cells [5]: 2.01 nM | IC50 of cytotoxicity, antibody directly conjugated to PNU, SKOV3 cells [5]: 2.08 nM | Kd [1]: 594 nM | Kd [2]: 3.5 nM

Herceptin full-size antibody variant 7–6 (H-Y57A, L-N30D)
Kd [1]: 0.95 nM | Kd [2]: 3.16 nM

Herceptin full-size antibody variant 11-9 (H-D98F, H-D31M, L-D28K)
EC50 of internalization, direct (pHAb-conjugated antibody variant), JIMT-1 cells, 37°C, 18 h, high content imaging [7]: 70 pM | EC50 of internalization, direct (pHAb-conjugated antibody variant), SKOV3 cells, 37°C, 18 h, high content imaging [7]: 0.32 nM | EC50 of internalization, indirect (antibody variant + pHAb-secondary antibody), SKOV3 cells, 37°C, 18 h, high content imaging [7]: 0.44 nM

Herceptin full-size antibody variant 12-9 (H-D98F, H-D31K, L-D28K)
EC50 of internalization, direct (pHAb-conjugated antibody variant), JIMT-1 cells, 37°C, 18 h, high content imaging [8]: 70 pM | EC50 of internalization, direct (pHAb-conjugated antibody variant), SKOV3 cells, 37°C, 18 h, high content imaging [8]: 0.41 nM | EC50 of internalization, indirect (antibody variant + pHAb-secondary antibody), SKOV3 cells, 37°C, 18 h, high content imaging [8]: 0.41 nM

WT Herceptin full-size antibody (variant 2-1, Parent 1)
EC50 of internalization, direct (pHAb-conjugated antibody variant), JIMT-1 cells, 37°C, 18 h, high content imaging [9]: 0.21 nM | EC50 of internalization, direct (pHAb-conjugated antibody variant), SKOV3 cells, 37°C, 18 h, high content imaging [9]: 0.32 nM | EC50 of internalization, indirect (antibody variant + pHAb-secondary antibody), SKOV3 cells, 37°C, 18 h, high content imaging [9]: 0.55 nM

bH1 full-size antibody variant 14-13 (H-D98W, H-G99D)
EC50 of internalization, direct (pHAb-conjugated antibody variant), SKOV3 cells, 37°C, 18 h, high content imaging [10]: 59 nM | EC50 of internalization, indirect (antibody variant + pHAb-secondary antibody), SKOV3 cells, 37°C, 18 h, high content imaging [10]: 3.75 nM

bH1 full-size antibody variant 16-13 (H-G99R)
EC50 of internalization, direct (pHAb-conjugated antibody variant), SKOV3 cells, 37°C, 18 h, high content imaging [11]: 74.9 nM

soluble Her2 ectodomain (from UniProt P04626 23-652) (domain or fragment)
Kd [12]: 68.1 nM | Kd [13]: 43.2 nM | Kd [14]: 253 nM | kon [14]: 78000 M⁻¹ s⁻¹ | Kd [15]: 298 nM | Kd [16]: 417 nM | kon [16]: 120000 M⁻¹ s⁻¹
